Target: Orai3 N-terminal peptide aa 52–65 (human) (UniProt Q9BRQ5)
Assay: SPR

In the case of “Calmodulin from bovine testes (from UniProt P62157 1-149) (natural protein)”, the response (resonance units) (resonance units) is reported as 207.

Source: publication PMC3173129
